Experimental findings from PMC8302766 are described below.

Broadly, the Kd is the equilibrium constant for the complex coming apart.

What all share (conditions): domain or fragment, No outside chemistry for unlabelled SAXS/AUC samples. Limits are not given, convention is residues 186-320 of short isoform A1-A (isoform B insert 252-303 absent). The hexapeptide 259-264 (311-316 in P09651) is taken as deleted because the printed 7.5 mg/mL = 0.598 mM gives about 12.54 kDa, which fits the delta-hexa form plus an assumed N-terminal GS cleavage scar (about 12.53 kDa), modification not given

In experiment [1] the target is low-complexity domain of hnRNPA1 (A1-LCD). Nature of the experiment: AUC; two-step isodesmic model, KD2 (later steps), 50 mM NaCl.
For experiment [2] the target is unchanged. Nature of the experiment: AUC; isodesmic model, 50 mM NaCl.
The target is the same in experiment [3]. Description: AUC; two-step isodesmic model, KD1 (first step), 50 mM NaCl.

B1: low-complexity domain of hnRNPA1 (A1-LCD) (protein)
chain: MASASSSQRGRSGSGNFGGGRGGGFGGNDNFGRGGNFSGRGGFGGSRGGGGYGGSGDGYNGFGNDGSNFGGGGNYNNQSSNFGPMKGGNFGGRSSGPYGGGGQYFAKPRNQGGYGGSSSSSSYGSGRRF
With B1, the Kd was 2200 µM in experiment [1], 3000 µM in experiment [2] and 5400 µM in experiment [3].
